Laboratory results as given in patent US20220332795A1 (ARO BIOTHERAPEUTICS, published 2022).
Residue numbers refer to the chain shown, from its start.

B1: SEQ ID NO 215 (designed binder, not shown: small tags and cut ends)
chain: MLPAPKNLVVSRVTEDSARLSWTAPDAAFDSFYIAYAEPRPDGEAIVLWVPGSERSYDLTGLKPGTEYSVLIHGVKGGLLSSPLIAEFTT
B2: SEQ ID NO 239 (designed binder, not shown: small tags and cut ends)
chain: B1 chain with V47Q, W49V, I85Y, E87I
B3: SEQ ID NO 219 (designed binder, not shown: small tags and cut ends)
chain: B1 chain with V47S, W49K, I85E, E87I
B4: SEQ ID NO 218 (designed binder, not shown: small tags and cut ends)
chain: B1 chain with V47H, W49V, I85S, E87I
B5: SEQ ID NO 244 (designed binder, not shown: small tags and cut ends)
chain: B1 chain with V47S, W49Q, I85G, E87H
B6: SEQ ID NO 259 (designed binder, not shown: small tags and cut ends)
chain: B1 chain with V47Q, W49G, I85L, E87V
B7: SEQ ID NO 247 (designed binder, not shown: small tags and cut ends)
chain: B1 chain with V47L, W49H, I85R, E87S
B8: SEQ ID NO 249 (designed binder, not shown: small tags and cut ends)
chain: B1 chain with W49E, I85H, E87N
B9: SEQ ID NO 236 (designed binder, not shown: small tags and cut ends)
chain: B1 chain with V47L, W49Q, I85D
B10: SEQ ID NO 229 (designed binder, not shown: small tags and cut ends)
chain: B1 chain with V47Q, W49L, I85V, E87H
B11: SEQ ID NO 228 (designed binder, not shown: small tags and cut ends)
chain: B1 chain with W49R, I85A, E87S
B12: SEQ ID NO 227 (designed binder, not shown: small tags and cut ends)
chain: B1 chain with V47G, W49R, I85S, E87I
B13: SEQ ID NO 217 (designed binder, not shown: small tags and cut ends)
chain: B1 chain with V47I, W49E, I85R, E87V
B14: SEQ ID NO 233 (designed binder, not shown: small tags and cut ends)
chain: B1 chain with V47Q, W49F, I85K, E87Y
B15: SEQ ID NO 255 (designed binder, not shown: small tags and cut ends)
chain: MLPAPKNLVVSRVTEDSARLSWTAPDAAFDSFFIGYLEPQPPGEAILLFVPGSERSYDLTGLKPGTEYNVTIQGVKGGFPSTPLSASFTT
B16: SEQ ID NO 245 (designed binder, not shown: small tags and cut ends)
chain: B1 chain with V47A, I85V, E87S
B17: SEQ ID NO 230 (designed binder, not shown: small tags and cut ends)
chain: B1 chain with V47W, W49L, I85V, E87F
B18: SEQ ID NO 224 (designed binder, not shown: small tags and cut ends)
chain: B1 chain with V47L, W49R, I85V
B19: SEQ ID NO 242 (designed binder, not shown: small tags and cut ends)
chain: B1 chain with V47Q, W49L, I85Y, E87A
B20: SEQ ID NO 234 (designed binder, not shown: small tags and cut ends)
chain: B1 chain with W49V, I85S, E87I
B21: SEQ ID NO 257 (designed binder, not shown: small tags and cut ends)
chain: B1 chain with V47Q, W49G, I85R, E87Y
B22: SEQ ID NO 226 (designed binder, not shown: small tags and cut ends)
chain: B1 chain with V47G, W49H, I85T, E87S
B23: SEQ ID NO 250 (designed binder, not shown: small tags and cut ends)
chain: B1 chain with V47L, W49R, I85Y, E87K
B24: SEQ ID NO 254 (designed binder, not shown: small tags and cut ends)
chain: B1 chain with V47L, W49A, I85S, E87K
B25: SEQ ID NO 258 (designed binder, not shown: small tags and cut ends)
chain: B1 chain with V47L, W49E, I85V, E87F
B26: SEQ ID NO 246 (designed binder, not shown: small tags and cut ends)
chain: B1 chain with V47Q, W49H, I85Y, E87F
B27: SEQ ID NO 240 (designed binder, not shown: small tags and cut ends)
chain: B1 chain with V47S, W49S, I85H, E87K
B28: SEQ ID NO 252 (designed binder, not shown: small tags and cut ends)
chain: B1 chain with W49H, I85D, E87F
B29: SEQ ID NO 248 (designed binder, not shown: small tags and cut ends)
chain: B1 chain with V47W, W49G, I85H, E87T
B30: SEQ ID NO 256 (designed binder, not shown: small tags and cut ends)
chain: B1 chain with V47Q, W49T, I85H, E87Y
B31: SEQ ID NO 237 (designed binder, not shown: small tags and cut ends)
chain: B1 chain with W49A, I85Y, E87S
B32: SEQ ID NO 253 (designed binder, not shown: small tags and cut ends)
chain: B1 chain with V47I, W49H, I85D, E87Y

Tests used:
[1] = biological target: T1, human CD71 extracellular domain (human, UniProt P02786 89-760, biotinylated); test: solution ELISA screen, signal ratio to HSA control
T1 construct: extracellular domain; also called hCD71; huCD71 ECD

[2] = biological target: T2, CD71 apical domain (human, UniProt P02786 189-383, limits assumed); test: solution ELISA screen, signal ratio to HSA control
T2 construct: domain: apical domain

[3] = biological target: T1, human CD71 extracellular domain; test: solution ELISA screen (luminescence)
[4] = biological target: T2, CD71 apical domain; test: solution ELISA screen (luminescence)

T2 sequence (P02786 189-383 limits assumed): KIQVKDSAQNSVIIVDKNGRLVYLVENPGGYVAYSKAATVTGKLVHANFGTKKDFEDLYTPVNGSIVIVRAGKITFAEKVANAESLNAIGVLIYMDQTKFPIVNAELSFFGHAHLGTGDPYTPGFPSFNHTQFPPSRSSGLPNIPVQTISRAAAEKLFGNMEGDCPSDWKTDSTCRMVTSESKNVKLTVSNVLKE
T1 sequence (P02786 other isoform, or with tags, fused parts or gaps): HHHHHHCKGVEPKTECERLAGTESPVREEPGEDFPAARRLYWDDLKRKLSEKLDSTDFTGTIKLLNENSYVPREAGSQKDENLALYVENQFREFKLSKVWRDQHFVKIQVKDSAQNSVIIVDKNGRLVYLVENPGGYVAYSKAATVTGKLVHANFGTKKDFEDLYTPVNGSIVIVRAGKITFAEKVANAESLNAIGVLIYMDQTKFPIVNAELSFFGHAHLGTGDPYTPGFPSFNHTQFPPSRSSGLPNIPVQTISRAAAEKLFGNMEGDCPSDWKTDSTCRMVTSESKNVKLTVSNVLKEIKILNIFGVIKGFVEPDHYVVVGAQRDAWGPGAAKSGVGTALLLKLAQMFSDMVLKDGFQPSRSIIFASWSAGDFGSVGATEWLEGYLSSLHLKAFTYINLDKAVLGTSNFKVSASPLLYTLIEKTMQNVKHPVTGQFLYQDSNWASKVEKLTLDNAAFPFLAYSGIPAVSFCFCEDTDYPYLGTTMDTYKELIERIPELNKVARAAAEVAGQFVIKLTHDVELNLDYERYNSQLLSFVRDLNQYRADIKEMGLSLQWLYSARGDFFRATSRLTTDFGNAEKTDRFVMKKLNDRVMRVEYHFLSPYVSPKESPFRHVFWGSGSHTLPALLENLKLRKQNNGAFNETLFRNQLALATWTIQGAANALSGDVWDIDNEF

| Binder | hCD71:HSA [1] | apical domain:HSA [2] | RLU [3] | RLU [4] |
| --- | --- | --- | --- | --- |
| B1 | 90.4 ratio | 261 ratio | 2.02e+06 RLU | 5.84e+06 RLU |
| B2 | 26.5 ratio | 221 ratio | 559000 RLU | 4.65e+06 RLU |
| B3 | 38.8 ratio | 418 ratio | 460000 RLU | 4.95e+06 RLU |
| B4 | 10.2 ratio | 202 ratio | 144000 RLU | 2.85e+06 RLU |
| B5 | 97.1 ratio | 329 ratio | 1.75e+06 RLU | 5.93e+06 RLU |
| B6 | 49.7 ratio | 235 ratio | 1.26e+06 RLU | 5.96e+06 RLU |
| B7 | 226 ratio | 394 ratio | 4.3e+06 RLU | 7.51e+06 RLU |
| B8 | 205 ratio | 308 ratio | 4.94e+06 RLU | 7.43e+06 RLU |
| B9 | 262 ratio | 477 ratio | 4.07e+06 RLU | 7.41e+06 RLU |
| B10 | 93.4 ratio | 374 ratio | 1.44e+06 RLU | 5.77e+06 RLU |
| B11 | 131 ratio | 238 ratio | 3.88e+06 RLU | 7.04e+06 RLU |
| B12 | 22.5 ratio | 177 ratio | 635000 RLU | 4.99e+06 RLU |
| B13 | 214 ratio | 420 ratio | 3.48e+06 RLU | 6.81e+06 RLU |
| B14 | 35.1 ratio | 255 ratio | 772000 RLU | 5.61e+06 RLU |
| B15 | 49.1 ratio | 69.3 ratio | 5.02e+06 RLU | 7.08e+06 RLU |
| B16 | 41.9 ratio | 259 ratio | 774000 RLU | 4.77e+06 RLU |

| Binder | hCD71:HSA [1] | apical domain:HSA [2] | RLU [3] | RLU [4] |
| --- | --- | --- | --- | --- |
| B17 | 34.4 ratio | 191 ratio | 1.1e+06 RLU | 6.11e+06 RLU |
| B18 | 136 ratio | 261 ratio | 3.55e+06 RLU | 6.82e+06 RLU |
| B19 | 31.9 ratio | 241 ratio | 648000 RLU | 4.9e+06 RLU |
| B20 | 216 ratio | 338 ratio | 4.51e+06 RLU | 7.04e+06 RLU |
| B21 | 26.9 ratio | 162 ratio | 802000 RLU | 4.84e+06 RLU |
| B22 | 135 ratio | 400 ratio | 2.15e+06 RLU | 6.38e+06 RLU |
| B23 | 15 ratio | 114 ratio | 724000 RLU | 5.54e+06 RLU |
| B24 | 104 ratio | 308 ratio | 2.24e+06 RLU | 6.62e+06 RLU |
| B25 | 204 ratio | 277 ratio | 5.4e+06 RLU | 7.34e+06 RLU |
| B26 | 21.3 ratio | 1.8 ratio | 548000 RLU | 47500 RLU |
| B27 | 33.9 ratio | 292 ratio | 610000 RLU | 5.26e+06 RLU |
| B28 | 59.6 ratio | 104 ratio | 4.34e+06 RLU | 7.57e+06 RLU |
| B29 | 22.2 ratio | 160 ratio | 756000 RLU | 5.45e+06 RLU |
| B30 | 27.2 ratio | 76.7 ratio | 2.07e+06 RLU | 5.84e+06 RLU |
| B31 | 165 ratio | 253 ratio | 4.58e+06 RLU | 7.01e+06 RLU |
| B32 | 92 ratio | 191 ratio | 3.47e+06 RLU | 7.21e+06 RLU |
